One molecule from patent publication US20210246218A1 (LYVGEN BIOPHARMA SUZHOU, published 2021) can be followed below.

For test [1], the target named is T1, recombinant human CD137 receptor protein (human, UniProt Q07011 24-186).
T1 construct: Coated on ELISA plates; also called recombinant human CD137 protein
As to the kind of experiment: ELISA, huCD137 coated, clone 3712 titrated; full sigmoid, plateau about 1.5. As for the experimental part:
(§1) For the data shown in FIGS. 16C-D, chimeric CD137 receptor protein samples were diluted in DPBS to 5 μg/mL and then coated onto an ELISA plate (Corning, Catalog number: 9018, high binding) at 50 μL (0.25 μg) per well, and incubated at 4° C. overnight. The plate was decanted and washed once; assay diluent was added at 200 μL/well. After a 1-hour incubation at room temperature, the plate was washed with PBST one time. […] The plate was incubated 1 hour at room temperature and then washed three times with PBST. Goat anti-human IgG-H+L HRP-conjugated at 1:100,000 dilution or goat anti-mouse IgG (H+L) secondary antibody, HRP, 10 at 1:50,000 dilution was added to the plate at 100 μL/well. The plate was incubated 1 hour at room temperature followed by washing with PBST four times. The TMB substrate solution was added 100 μL/well. The color was permitted to develop for 15 minutes and then 100 μL/well 2N H2SO4 was added to terminate the reaction. Absorbance at 450 nm and 620 nm was determined by a Tecan F200 Pro reader.
For orientation: In an ELISA, binding on a coated surface is turned into a signal by an enzyme label.

The target of a further test is T2, Ly050.
T2 chain: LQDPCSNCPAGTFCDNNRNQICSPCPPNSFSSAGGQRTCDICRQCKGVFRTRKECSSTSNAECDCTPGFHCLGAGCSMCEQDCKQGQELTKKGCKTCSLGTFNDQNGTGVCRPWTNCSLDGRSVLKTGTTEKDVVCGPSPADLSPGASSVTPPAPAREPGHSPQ
As to the kind of experiment: ELISA, clone 3712-IgG1v coated, CD137 protein titrated (EC50 is a concentration of the CD137 protein); full sigmoid, plateau about 2.2. Here is the method: The plate was decanted and washed once; assay diluent was added 200 μL/well. After one-hour incubation at room temperature, the plate was washed with PBST one time. CD137 receptor human/mouse chimeras were diluted in assay diluent to 100 or 10 μg/mL, and then a 4-fold serial dilution in assay diluent for 11 points to final concentrations of 100000, 25000, 6250, 1562.5, 390.63, 97.66, 24.41, 6.10, 1.53, 0.38 and 0.095 ng/mL or 10000, 2500, 625, 156.25, 39.06, 9.77, 2.44, 0.61, 0.15, 0.038 and 0.0095 ng/mL. The diluted CD137 receptor was added to the assay plate, 50 μL/well, in duplicate. The plate was incubated one hour at room temperature and then washed three times with PBST. Goat anti-human IgG-H+L HRP conjugated at 1:100,000 20 dilution was added to the plate at 100 μL/well. The plate was then incubated one hour at room temperature followed by washing with PBST four times. The TMB substrate solution was added at 100 μL/well. The color was allowed to develop for 15 minutes, and was stopped with 100 μL/well 2N H2SO4. Absorbance at 450 nm and 620 nm was determined by a Tecan F200 Pro reader.

The next test has as its target human CD137 on cells (human, UniProt Q07011 24-255). As to the kind of experiment: cell-based or functional assay.
The target of a further test is T3, human GITR on CHO cells (human, UniProt Q9Y5U5 26-241).
T3 construct: whole, on cells
T3 sequence (looked up): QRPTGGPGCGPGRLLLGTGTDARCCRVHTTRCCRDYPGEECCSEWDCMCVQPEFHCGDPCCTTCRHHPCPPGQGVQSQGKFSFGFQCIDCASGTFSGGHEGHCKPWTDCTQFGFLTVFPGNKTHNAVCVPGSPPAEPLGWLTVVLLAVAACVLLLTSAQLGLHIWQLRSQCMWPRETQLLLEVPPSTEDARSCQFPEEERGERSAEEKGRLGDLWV
As to the kind of experiment: flow cytometry on CHO cells over-expressing the target. Here is the method: (§2) The cells were resuspended in ice cold assay buffer at 2*10\hat{ }6/mL and transferred to 96-well V-bottom plate with 100 μL/well. […] The plate was incubated in the dark for 2 hours at 4° C. The cells were washed 3 times by centrifugation at 1000 g for 3 min and resuspended in 100 μL ice cold assay buffer containing goat F(ab′)₂ anti-human IgG-Fc (PE) or PE goat anti-mouse IgG antibody. The plate was incubated in the dark for another 1 hour at 4° C. The cells were washed 2 times by centrifugation at 1000 g for 3 min and resuspended in ice cold assay buffer containing 2% PFA and analyzed on the flow cytometer immediately.
On the technique in general: A flow cytometer gives signals particle by particle.

A further test deals with T4, human CD40 on CHO cells (human, UniProt P25942 21-277).
T4 construct: whole, on cells
T4 sequence (P25942 21-277): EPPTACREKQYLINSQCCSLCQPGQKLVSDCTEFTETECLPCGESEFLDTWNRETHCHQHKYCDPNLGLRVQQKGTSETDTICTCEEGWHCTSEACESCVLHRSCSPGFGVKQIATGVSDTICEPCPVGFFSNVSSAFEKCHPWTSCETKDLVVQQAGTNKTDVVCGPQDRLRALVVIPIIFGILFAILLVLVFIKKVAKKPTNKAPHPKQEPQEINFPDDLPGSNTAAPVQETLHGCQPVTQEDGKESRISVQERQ
The test is described as above. As for the experimental part: as §2

The next test concerns the target T5, human BTLA on CHO cells (human, UniProt Q7Z6A9 31-289).
T5 construct: whole, on cells
The test is described as above. As for the experimental part: as §2

Another test concerns the target T6, human LAG-3 on CHO cells (human, UniProt P18627 23-525).
T6 construct: whole, on cells
T6 sequence (looked up): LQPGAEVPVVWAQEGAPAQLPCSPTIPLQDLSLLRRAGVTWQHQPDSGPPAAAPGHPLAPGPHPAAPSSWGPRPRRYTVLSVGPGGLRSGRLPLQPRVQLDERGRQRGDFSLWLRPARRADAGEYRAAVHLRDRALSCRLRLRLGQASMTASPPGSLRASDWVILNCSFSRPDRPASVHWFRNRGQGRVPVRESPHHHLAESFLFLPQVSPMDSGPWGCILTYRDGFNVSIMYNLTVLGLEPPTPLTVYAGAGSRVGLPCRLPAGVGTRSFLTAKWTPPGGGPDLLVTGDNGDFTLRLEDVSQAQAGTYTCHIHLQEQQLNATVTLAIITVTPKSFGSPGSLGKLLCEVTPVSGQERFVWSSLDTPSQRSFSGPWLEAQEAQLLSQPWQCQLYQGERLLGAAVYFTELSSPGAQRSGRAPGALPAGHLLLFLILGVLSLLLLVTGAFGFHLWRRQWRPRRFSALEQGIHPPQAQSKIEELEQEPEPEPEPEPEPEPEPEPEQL
Described as above. As for the experimental part: as §2

Another test deals with T7, Ly110.
T7 chain: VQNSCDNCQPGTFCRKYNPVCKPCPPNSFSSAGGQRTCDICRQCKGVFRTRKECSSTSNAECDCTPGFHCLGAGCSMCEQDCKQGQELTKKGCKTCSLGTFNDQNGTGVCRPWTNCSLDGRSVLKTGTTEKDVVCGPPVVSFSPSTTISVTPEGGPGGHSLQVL
As to the kind of experiment: ELISA, CD137 protein coated, clone 3712 titrated; sigmoid with a low plateau of about 0.45 (huCD137 about 1.5). As for the experimental part:
as §1

Several values for one entry are separate records, joined by “and”; a condition that tells them apart may be missing. Equal values may be shown once.

T1 sequence (Q07011 24-186 limits assumed): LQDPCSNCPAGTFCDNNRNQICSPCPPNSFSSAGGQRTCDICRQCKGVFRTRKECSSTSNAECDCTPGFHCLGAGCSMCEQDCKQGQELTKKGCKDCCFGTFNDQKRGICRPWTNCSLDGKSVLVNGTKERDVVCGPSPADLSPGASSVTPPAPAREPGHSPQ

B1: Clone 3712-IgG1v (IgG1v/kappa) (antibody)
heavy: QVQLVQSGAEVKKPGASVKVSCKASGYTFAGFEMHWVRQAPGQGLEWMGAIDPKTGGTDYNQKFKDRVTMTRDTSISTAYMELSRLRSDDTAVYYCARDLGYFDVWGQGTLVTVSSASTKGPSVFPLAPSSKSTSGGTAALGCLVKDYFPEPVTVSWNSGALTSGVHTFPAVLQSSGLYSLSSVVTVPSSSLGTQTYICNVNHKPSNTKVDKKVEPKSCDKTHTCPPCPAPELLGPSVFLFPPKPKDTLMISRTPEVTCVVVDVEHEDPEVKFNWYVDGVEVHNAKTKPREEQYNSTYRVVSVLTVLHQDWLNGKEYKCKVSNKALPAPIEKTISKAKGQPREPQVYTLPPSREEMTKNQVSLTCLVKGFYPSDIAVEWESNGQPENNYKTTPPVLDSDGSFFLYSKLTVDKSRWQQGNVFSCSVMHEALHNHYTQKSLSLSPGK
light: DIQMTQSPSSLSASVGDRVTITCRASQDIRSNLNWYQQKPGGAVKLLIYYTSRLHSGVPSRFSGSGSGTDYTLTISSLQPEDFATYFCQQSEKLPRTFGGGTKVEIRRTVAAPSVFIFPPSDEQLKSGTASVVCLLNNFYPREAKVQWKVDNALQSGNSQESVTEQDSKDSTYSLSSTLTLSKADYEKHKVYACEVTHQGLSSPVTKSFNRGEC
notes: copies: 2 + 2
With B1, the EC50 (usually the concentration that produces a half-maximal response) stood at 0.0495 µg/mL in test [1], 0.00339 µg/mL in the test with Ly050 and 0.0578 µg/mL in the test with Ly110. In addition, the “IFN-γ secretion of human CD8+ T cells co-cultured with CHO-K1-huFcγRIIB cells and OKT3; average EC50, n=12” value with human CD137 on cells was 30.6 ng/mL and ~0.21 nM. Besides, the “IL-8 secretion of CD137 reporter cells (GS-H2-huCD137) co-cultured with CHO-K1-huFcγRIIB cells; average EC50, n=6” value with human CD137 on cells is 44.4 ng/mL and ~0.31 nM. The binding result with human GITR on CHO cells, with human CD40 on CHO cells, in the test with human BTLA on CHO cells and in the test with human LAG-3 on CHO cells was “no binding” each time.
